{"source": "patent US20030153012A1", "binders": {"B1": {"name": "scFv-His6(VL-S93ANBD) conjugate (scFv)", "scFv": "EVKLQESGPGLVAPSQSLSITCTVSGFSLTGYGVNWVRQPPGKGLEWLGMIWGDGNTDYNSALKSRLSISKDNSKSQVFLKMNSLHTDDTARYYCARERDYRLDYWGQGTTVTVSSGGGGSGGGGSGGGGSDIELTQSPASLSASVGETVTITCRASGNIHNYLAWYQQKQGKSPQLLVYYTTTLADGVPSRFSGSGSGTQYSLKINSLQPEDFGSYYCQHFWCTPRTFGGGTKLEIKRPLEHHHHHH", "modifications": "chain 1 pos 224 (VL Cys93): Cys whose S-gamma is coupled to the fluorophore IANBD (ANBD adduct), written C"}}, "key": {"[1]": {"molecular_target": "hen egg white lysozyme (hen) (UniProt P00698)", "sequence (P00698 19-147 limits assumed)": "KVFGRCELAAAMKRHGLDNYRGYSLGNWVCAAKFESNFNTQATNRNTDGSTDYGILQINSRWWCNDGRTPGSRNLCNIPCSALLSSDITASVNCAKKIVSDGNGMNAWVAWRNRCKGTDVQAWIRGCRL", "assay": "fluorescence emission, excitation at 469 nm, lysozyme at 100 nM and 1 uM, three preparations"}, "[2]": {"molecular_target": "hen egg white lysozyme (hen) (UniProt P00698)", "assay": "fluorescence emission after addition of lysozyme, excitation at 469 nm, several preparations"}, "[3]": {"molecular_target": "hen egg white lysozyme (hen) (UniProt P00698)", "assay": "fluorescence at 535 nm, excitation at 480 nm, lysozyme 10 nM to 2 uM in 50 mM Tris-HCl, 150 mM NaCl, pH 7.5"}}, "data": [{"binder": "B1", "values": [{"measurement": "maximum enhancement of fluorescence", "setting": "[1]", "result": 27, "unit": "%"}, {"measurement": "fluorescence intensity at saturation relative to the free biosensor", "setting": "[2]", "result": 1.26, "unit": "times"}, {"measurement": "increase of fluorescence intensity at saturation", "setting": "[3]", "result": 91, "unit": "%"}]}]}
